This passage reports reverse-splicing fitness results from the RNAGym collection of RNA variant scans (doi:10.1093/molbev/msab373).

B1: Azoarcus group I ribozyme (parent)
chain: GUGCCUUGCGCCGGGAAACCACGCAAGGGAUGGUGUCAAAUUCGGCGAAACCUAAGCGCCCGCCCGGGCGUAUGGCAACGCCGAGCCAAGCUUCGGCGCCUGCGCCGAUGAAGGUGUAGAGACUAGACGGCACCCACCUAAGGCAAACGCUAUGGUGAAGGCAUAGUCCAGGGAGUGGCGAAAGUCACACAAACCGG

The variants in this series derive from B1. Briefly: reverse-splicing fitness (ratio to wild type); higher = more active; in vitro selection; Mg2+ level not given. The method, boiled down:
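An in vitro group I ribozyme library with randomized positions was T7-transcribed and gel-purified. In triplicate, 10 pmol RNA in EPPS pH 7.5 was reacted with 50 pmoles of a 30-nt RNA substrate for 1 h at 37 °C across several added MgCl2 levels (1–48 mM), then stopped with EDTA. Products were reverse transcribed from a substrate-complementary primer, PCR-amplified and sequenced (HiSeq 4000). Fitness is a variant's read proportion after selection over that before, normalised to wild type.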
Consider A111U A120G A145G C150G C169G U176G, for which the reverse-splicing fitness is 0.00518.

Turning to A111U A120G A145G C150G C169G U176A, the reverse-splicing fitness worked out at 0.00971. The result for A111U A120C C150U C169A U176C reads 0.0126. Take A111U A120C C150U C169A U176A: the reverse-splicing fitness is 0.018. On to A111U A120C C150U C169A U176G, for which the reverse-splicing fitness was determined as 0.00509. The value for A111U A120C C150U U176A was 0.154; that for A111U A120C C150U U176C was 0.204; that for A111U A120C C150U U176G was 0.0321. In the case of A111U A120G A145G C150A C169U, the reverse-splicing fitness stood at 0.028. Take A111U A120G A145G C150A C169G: the reverse-splicing fitness worked out at 0.0343. Turning to A111U A120G A145G C150A C169A, the reverse-splicing fitness was found to be 0.0192. The result for A111U A120C A145G C150U U176C reads 0.25.

Take A111U A120C A145G C150U U176A: the reverse-splicing fitness is 0.176. The value for A111U A120C A145G C150U U176G was 0.0319; that for A111U A120G was 0.174; that for A111U A120G A145G C150U C169G U176G was 0.00498. For A111U A120G A145G C150U C169G U176A, the reverse-splicing fitness amounted to 0.0272. The value for A111U A120G A145G C150U C169G U176C was 0.0424; that for A111U A120C C150A C169U was 0.0239; that for A111U A120C C150A C169G was 0.00847. The value for A111U A120C C150A C169A was 0.0105; that for A111U A120C C150A U176C was 0.0574; that for A111U A120C C150A U176A was 0.0374. Turning to A111U A120C C150A U176G, the reverse-splicing fitness came out at 0.0118.

Turning to A111U A120G A145G C150U C169U U176C, the reverse-splicing fitness is 0.0447. The value for A111U A120G A145G C150U C169U U176A was 0.0386; that for A111U A120G A145G C150U C169U U176G was 0.00563.

Take A111U A120C A145G C169U: the reverse-splicing fitness is 0.172.

For the variant A111U A120C A145G C169A, the reverse-splicing fitness turned out to be 0.0121. The result for A111U A120C A145G C169G reads 0.0095.

Consider A111U A120C C150A C169A U176G, for which the reverse-splicing fitness is 0.00474. On to A111U A120C C150A C169A U176C, for which the reverse-splicing fitness was determined as 0.0133. The result for A111U A120C C150A C169A U176A reads 0.0178; that for A111U A120C A145U C150U C169U U176C, 0.0381; that for A111U A120C A145U C150U C169U U176A, 0.0306. A111U A120C A145U C150U C169U U176G: the reverse-splicing fitness stood at 0.0049. With A111U A120G A145U C150G C169A U176G, the reverse-splicing fitness was determined as 0.00496. As for A111U A120G A145U C150G C169A U176A, the reverse-splicing fitness worked out at 0.0103.

Turning to A111U A120G A145U C150G C169A U176C, the reverse-splicing fitness is 0.0105. The result for A111U A120G A145C C169U reads 0.151. The value for A111U A120G A145C C169A was 0.11; that for A111U A120G A145C C169G was 0.193. The result for A111U A120G A145U C150A U176G reads 0.00474; that for A111U A120G A145U C150A U176C, 0.018. For A111U A120G A145U C150A U176A, the reverse-splicing fitness turned out to be 0.0129. The value for A111U A120G A145G C150A C169G U176G was 0.00526. The result for A111U A120G A145G C150A C169G U176A reads 0.0198; that for A111U A120G A145G C150A C169G U176C, 0.0294.

A111U A120G A145G C150A U176C: the reverse-splicing fitness turned out to be 0.0274. In the case of A111U A120G A145G C150A U176G, the reverse-splicing fitness worked out at 0.00712.

Take A111U A120G A145G C150A U176A: the reverse-splicing fitness was 0.0138. Consider A111U A120C A145U C150A C169G U176G, for which the reverse-splicing fitness is 0.00518. The result for A111U A120C A145U C150A C169G U176C reads 0.0106; that for A111U A120C A145U C150A C169G U176A, 0.0112; that for A111U A120G A145C C150A C169A, 0.00967. The value for A111U A120G A145C C150A C169U was 0.0118. The value for A111U A120G A145C C150A C169G was 0.0146; that for A111U A120G A145C C150A C169A U176A was 0.0144.

As to A111U A120G A145C C150A C169A U176G, the reverse-splicing fitness was found to be 0.004. The result for A111U A120G A145C C150A C169A U176C reads 0.00665. For A111U A120C C150G C169U U176C, the reverse-splicing fitness was 0.0162. The result for A111U A120C C150G C169U U176A reads 0.00853; that for A111U A120C C150G C169U U176G, 0.00475.

With A111U A120G A145C C150U C169G U176G, the reverse-splicing fitness is 0.00545.

Take A111U A120G A145C C150U C169G U176C: the reverse-splicing fitness was found to be 0.0226. Regarding A111U A120G A145C C150U C169G U176A, the reverse-splicing fitness worked out at 0.0293. For the variant A111U A120C A145U C150G C169U, the reverse-splicing fitness came to 0.0242. On to A111U A120C A145U C150G C169A, for which the reverse-splicing fitness amounted to 0.00829. On to A111U A120C A145U C150G C169G, for which the reverse-splicing fitness is 0.00662. With A111U A120C A145G C169G U176C, the reverse-splicing fitness turned out to be 0.0229. The value for A111U A120C A145G C169G U176A was 0.019; that for A111U A120C A145G C169G U176G was 0.00461. Consider A111U A120C A145U C150A C169U U176A, for which the reverse-splicing fitness came to 0.0185. Turning to A111U A120C A145U C150A C169U U176C, the reverse-splicing fitness worked out at 0.0187. For the variant A111U A120C A145U C150A C169U U176G, the reverse-splicing fitness was 0.00493. The result for A111U A120C A145U C150U C169A U176A reads 0.0134. For A111U A120C A145U C150U C169A U176C, the reverse-splicing fitness stood at 0.00725. The value for A111U A120C A145U C150U C169A U176G was 0.0056; that for A111U A120C A145U C150G C169G U176G was 0.00491. Turning to A111U A120C A145U C150G C169G U176A, the reverse-splicing fitness came to 0.00683. On to A111U A120C A145U C150G C169G U176C, for which the reverse-splicing fitness is 0.005. The result for A111U A120G A145U C150U U176C reads 0.0388. Take A111U A120G A145U C150U U176G: the reverse-splicing fitness worked out at 0.0059. Take A111U A120G A145U C150U U176A: the reverse-splicing fitness is 0.0287.
